From paper PMC7863765

Target: T1, untagged full-length human 14-3-3ζ (human), P63104
T1 chain: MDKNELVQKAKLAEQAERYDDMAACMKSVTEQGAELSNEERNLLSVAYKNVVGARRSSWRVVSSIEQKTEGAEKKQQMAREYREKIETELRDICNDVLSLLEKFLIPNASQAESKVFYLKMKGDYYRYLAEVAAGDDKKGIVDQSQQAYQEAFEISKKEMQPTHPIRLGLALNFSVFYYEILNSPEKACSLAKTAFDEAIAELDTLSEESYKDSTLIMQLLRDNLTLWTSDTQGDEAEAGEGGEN
Assay: SEC
Settings: remark: other sources report otherwise

stoichiometry N: 2
B1: untagged full-length human 14-3-3ζ, P63104 1-245 (natural protein)
chain: MDKNELVQKAKLAEQAERYDDMAACMKSVTEQGAELSNEERNLLSVAYKNVVGARRSSWRVVSSIEQKTEGAEKKQQMAREYREKIETELRDICNDVLSLLEKFLIPNASQAESKVFYLKMKGDYYRYLAEVAAGDDKKGIVDQSQQAYQEAFEISKKEMQPTHPIRLGLALNFSVFYYEILNSPEKACSLAKTAFDEAIAELDTLSEESYKDSTLIMQLLRDNLTLWTSDTQGDEAEAGEGGEN
